Measurements taken from US20200024330A1.

How the values were obtained:
Experiment in all cases: cell-based or functional assay
[1] = target: HIV-1 MGRM-F1-013 Env (pseudovirus) (HIV-1)
[2] = target: aMLV envelope protein on pseudovirus (aMLV)
[3] = target: HIV-1 JR-CSF envelope protein (Env) on pseudotyped virus (HIV-1 isolate JR-CSF) (UniProt P20871)
[4] = target: aMLV envelope protein on pseudotyped virus (negative control) (aMLV)
[5] = target: HIV-1 envelope glycoprotein (Env) of isolate 6535.3, on pseudovirus (HIV-1)
[6] = target: HIV-1 Env of isolate 93RW029 (HIV-1)
[7] = target: HIV-1 Env of isolate 92RW026 (HIV-1)
[8] = target: HIV-1 envelope glycoprotein (Env) of isolate APV_6, on pseudovirus (HIV-1)
[9] = target: HIV-1 Env of isolate MGRM-C-025 (subtype C), on pseudovirus (HIV-1)
[10] = target: HIV-1 APV6 envelope glycoprotein (Env) (HIV-1)
[11] = target: HIV-1 MGRM-C-028 envelope glycoprotein (Env) (HIV-1)
[12] = target: HIV-1 Env of isolate SC422661.8 (subtype B) (HIV-1)
[13] = target: HIV-1 Env of isolate MGRM-C-028 (subtype C), on pseudovirus (HIV-1)
[14] = target: HIV-1 MGRM-C-027 envelope glycoprotein (Env) (HIV-1)
[15] = target: HIV-1 Env of isolate MGRM-D-028 (HIV-1)
[16] = target: HIV-1 Env of isolate MGRM-A-012 (HIV-1)
[17] = target: HIV-1 envelope glycoprotein (Env) of isolate MGRM-Chronic-B-002, on pseudovirus (HIV-1)
[18] = target: HIV-1 Env of isolate 94KE105 (HIV-1)
[19] = target: HIV-1 MGRM-D-018 Env (pseudovirus) (HIV-1)
[20] = target: HIV-1 JRFL Env (pseudovirus) (HIV-1)
[21] = target: HIV-1 93UG077 Env (pseudovirus) (HIV-1)
[22] = target: HIV-1 APV13 envelope glycoprotein (Env) on pseudovirus (HIV-1)
[23] = target: HIV-1 MGRM-Chronic-B-010 Env (pseudovirus) (HIV-1)
[24] = target: HIV-1 Env of isolate MG RM-AG-008 (HIV-1)
[25] = target: HIV-1 JR-FL Env (pseudovirus) (HIV-1)
[26] = target: HIV-1 Env of isolate MG RM-AG-006 (HIV-1)

Chain of 1443_C16 (PG16) (TCN-116) (antibody) (VH): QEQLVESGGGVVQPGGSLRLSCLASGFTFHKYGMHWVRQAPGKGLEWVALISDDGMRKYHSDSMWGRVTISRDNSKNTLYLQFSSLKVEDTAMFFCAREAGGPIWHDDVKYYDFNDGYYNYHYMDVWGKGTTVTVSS
Chain of 1443_C16 (PG16) (TCN-116) (antibody) (VL): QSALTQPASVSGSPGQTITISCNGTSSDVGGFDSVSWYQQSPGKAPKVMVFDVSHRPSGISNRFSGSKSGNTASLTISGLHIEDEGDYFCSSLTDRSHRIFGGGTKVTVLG

Substance: 2F5 (antibody)
- IC50 (µg/ml), pseudovirus neutralization [1]: 4.57 µg/mL
- IC90 (pseudovirus neutralization) [2]: > 50 µg/mL

Substance: 2G12 (antibody)
- IC50 (µg/ml), pseudovirus neutralization [1]: > 50 µg/mL
- IC90 (pseudovirus neutralization) [2]: > 50 µg/mL

Substance: 4E10 (antibody)
- IC90 (pseudovirus neutralization) [2]: > 50 µg/mL

Substance: 1443_C16 (PG16) (TCN-116) (antibody)
- IC50, pseudovirus neutralization, 1 hour Virus/Ab Incubation [3]: < 0.0025 µg/mL
- IC50, pseudovirus neutralization, 18 hour Virus/Ab Incubation [3]: < 0.0025 µg/mL
- IC90 (pseudovirus neutralization) [2]: > 50 µg/mL
- IC50, pseudovirus neutralization, 1 hour Virus/Ab Incubation [4]: > 50 µg/mL
- IC50, pseudovirus neutralization, 18 hour Virus/Ab Incubation [4]: > 50 µg/mL

Substance: 1495_C14 (PGC14) (antibody)
- IC50, pseudovirus neutralization, 1 hour Virus/Ab Incubation [3]: > 50 µg/mL
- IC50, pseudovirus neutralization, 18 hour Virus/Ab Incubation [3]: > 50 µg/mL
- IC50 (µg/ml), pseudovirus neutralization [1]: 6 µg/mL
- IC50, pseudovirus neutralization, 1 hour Virus/Ab Incubation [4]: > 50 µg/mL
- IC50, pseudovirus neutralization, 18 hour Virus/Ab Incubation [4]: > 50 µg/mL

Substance: 1496_C09 (PG9) (TCN-109) (antibody)
- IC50, pseudovirus neutralization [5]: 1.05 µg/mL
- IC50 [6]: 0.69 µg/mL
- IC50, pseudovirus neutralization, 1 hour Virus/Ab Incubation [3]: < 0.0025 µg/mL
- IC50, pseudovirus neutralization, 18 hour Virus/Ab Incubation [3]: < 0.0025 µg/mL
- IC50 [7]: 0.164 µg/mL
- IC50, pseudovirus neutralization [8]: 0.181 µg/mL
- IC50 (µg/mL), pseudovirus neutralization [9]: 0.148 µg/mL
- IC50 (µg/ml), pseudovirus neutralization [1]: 0.56 µg/mL
- IC50 neutralization [10]: 0.214 µg/mL
- IC50 neutralization [11]: 0.121 µg/mL
- IC50 (µg/mL), pseudovirus neutralization [12]: 1.48 µg/mL
- IC50 (µg/mL), pseudovirus neutralization [13]: 0.067 µg/mL
- IC50 neutralization [14]: 2.45 µg/mL
- IC50 (µg/mL), pseudovirus neutralization [15]: 20.2 µg/mL
- IC50 (µg/mL), pseudovirus neutralization [16]: 19.3 µg/mL
- IC50, pseudovirus neutralization [17]: 3.44 µg/mL
- IC50 (µg/mL), pseudovirus neutralization [18]: 37.9 µg/mL

Substance: 4838_L06 (PGT-121) (antibody)
- neutralization IC80 [19]: 0.0231 µg/mL
- neutralization IC90 [19]: 0.0414 µg/mL
- neutralization IC95 [19]: 0.0715 µg/mL
- neutralization IC80 [20]: 0.0806 µg/mL
- neutralization IC90 [20]: 0.151 µg/mL
- neutralization IC95 [20]: 0.267 µg/mL
- neutralization IC90 [21]: 0.369 µg/mL
- neutralization IC95 [21]: 0.74 µg/mL

Substance: 4858_P08 (PGT-123) (antibody)
- IC50 (ug/ml), neutralizing activity [22]: 0.222 µg/mL
- IC50, pseudovirus neutralization [22]: 0.222 µg/mL
- IC80, pseudovirus neutralization [22]: 0.879 µg/mL
- IC90 (pseudovirus neutralization) [22]: 1.87 µg/mL
- IC95, pseudovirus neutralization [22]: 3.5 µg/mL
- IC50, pseudovirus neutralization [23]: 0.009 µg/mL
- neutralization IC50 [24]: 19.2 µg/mL
- IC50, pseudovirus neutralization [25]: 0.014 µg/mL
- neutralization IC50 [26]: 0.014 µg/mL

Substance: 4877_D15 (PGT-122) (antibody)
- IC50 (ug/ml), neutralizing activity [22]: 0.992 µg/mL
- IC50, pseudovirus neutralization [23]: 0.018 µg/mL
- neutralization IC50 [24]: > 50 µg/mL
- IC50, pseudovirus neutralization [25]: 0.026 µg/mL
- neutralization IC50 [26]: 0.028 µg/mL

Substance: 5123_A06 (PGT-125) (antibody)
- IC50 (ug/ml), neutralizing activity [22]: 0.0128 µg/mL
- neutralization IC50 [22]: 0.0128 µg/mL
- neutralization IC80 [22]: 0.0414 µg/mL
- neutralization IC90 [22]: 0.0821 µg/mL
- neutralization IC95 [22]: 0.154 µg/mL
- IC50, pseudovirus neutralization [23]: 0.006 µg/mL
- neutralization IC50 [24]: > 50 µg/mL
- IC50, pseudovirus neutralization [25]: 0.009 µg/mL
- neutralization IC50 [26]: 0.008 µg/mL

Substance: 5141_B17 (PGT-126) (antibody)
- IC50 [19]: 0.0093 µg/mL
- IC80 [19]: 0.0391 µg/mL
- IC90 [19]: 0.0918 µg/mL
- IC95 [19]: 0.205 µg/mL
- IC50 [20]: 0.014 µg/mL
- IC80 [20]: 0.0454 µg/mL
- IC90 [20]: 0.09 µg/mL
- IC95 [20]: 0.169 µg/mL
- IC50 (ug/ml), neutralizing activity [22]: 0.012 µg/mL
- IC50, pseudovirus neutralization [23]: 0.005 µg/mL
- neutralization IC50 [24]: > 50 µg/mL
- IC50, pseudovirus neutralization [25]: 0.014 µg/mL
- neutralization IC50 [26]: 0.01 µg/mL
- IC50 [21]: 0.0256 µg/mL
- IC80 [21]: 0.102 µg/mL
- IC90 [21]: 0.238 µg/mL
- IC95 [21]: 0.577 µg/mL
